Results from patent publication US20230340136A1, “TREATMENT OF CLL” (NOVARTIS AG, priority 2020, published 2023).

Key:
BTK^C481S = BTK^C481S (Homo sapiens, UniProt Q06187, C481S); settings: cited from earlier work
[1] = Phase Ib study CVAY736Y2102: pharmacokinetics of VAY736; format: in vivo, human; settings: in combination with ibrutinib
Description: (§1) The dosing cycle is 28 days. […] During the dose expansion part of the study, ibrutinib will be continued at the same dose schedule as tolerated before study enrollment, see exclusion criteria above for additional information on dose level.

BAFF receptor = target: T1, BAFF receptor (Homo sapiens, UniProt Q96RJ3); assay: Phase Ib study CVAY736Y2102: BAFF receptor occupancy; format: in vivo; settings: VAY736 doses of 3 mg/kg or above
T1 construct: endogenous in cells; host or cells: B cells / tissue of CLL patients in study CVAY736Y2102 (for A6: simulated by a PK/PD model, not measured)
Description: as §1

BAFF = assay: Phase Ib study CVAY736Y2102: free (soluble) BAFF; set-up: species or system human; settings: in vivo
Description: as §1

BTK^C481S, sequence (Q06187 whole entry C481S): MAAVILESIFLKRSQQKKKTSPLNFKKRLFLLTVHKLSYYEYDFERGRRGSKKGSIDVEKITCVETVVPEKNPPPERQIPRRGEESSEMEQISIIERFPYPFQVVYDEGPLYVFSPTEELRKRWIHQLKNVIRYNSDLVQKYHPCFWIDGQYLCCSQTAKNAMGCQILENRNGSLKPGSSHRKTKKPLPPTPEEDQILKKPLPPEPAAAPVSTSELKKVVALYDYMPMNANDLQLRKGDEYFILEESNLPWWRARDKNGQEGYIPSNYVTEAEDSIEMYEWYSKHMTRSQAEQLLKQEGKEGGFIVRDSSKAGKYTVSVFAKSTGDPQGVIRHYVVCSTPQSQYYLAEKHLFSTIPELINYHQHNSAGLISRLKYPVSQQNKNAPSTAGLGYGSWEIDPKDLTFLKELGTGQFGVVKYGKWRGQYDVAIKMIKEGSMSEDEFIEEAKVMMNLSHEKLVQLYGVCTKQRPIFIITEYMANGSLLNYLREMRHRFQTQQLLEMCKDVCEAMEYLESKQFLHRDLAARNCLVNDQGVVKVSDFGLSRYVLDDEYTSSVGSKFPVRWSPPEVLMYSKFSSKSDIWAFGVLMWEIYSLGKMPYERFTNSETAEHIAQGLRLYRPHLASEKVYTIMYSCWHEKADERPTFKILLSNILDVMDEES

Row | Tissue receptor occupancy (BAFF receptor) | Compound | activity against ibrutinib-resistant BTK^C481S mutation (BTK^C481S) | VAY736 concentration: dose dependence [1] | dose at which linear PK achieved [1] | Free BAFF (BAFF)
1 | – | C[C@H]1CN(C2COC2)CCN1c1ccc(Nc2cc(-c3ccnc(N4CCn5c(cc6c5CC(C)(C)C6)C4=O)c3CO)cn(C)c2=O)nc1 [fenebrutinib] | active against ibrutinib-resistant BTK^C481S | – | – | –
2 | > 99% | VAY736: non-fucosylated human IgG1 kappa anti-BAFFR antibody, heavy chain SEQ ID NO: 9, light chain SEQ ID NO: 10 | – | increased with dose | ≥ 3 mg/kg | accumulated to steady state with no dose relationship
